The text below walks through data of PMC4823740.

In test [1] the target is core ACD fragment of AgsA:His-DD (degraded fragment in the crystal, residues 35-147) (Salmonella enterica serovar typhimurium LT2). Description: crystal structure; AgsA:His-DD degraded in the drop; 25% pentaerythritol propoxylate (5/4 PO/OH), 0.1 M MES pH 6.0, 20% MPD, 20 °C; space group P4(1)2(1)2, 2.0 Å.
The target of test [2] is AgsA:DD, double deletion AgsA lacking 11 residues at the N-terminus and 9 residues at the C-terminus, tagless (Salmonella enterica serovar typhimurium LT2). The test is described as follows: SEC; analytical SEC, Superose 6 10/300, 20 mM Tris, 50 mM NaCl, pH 7.5, calibrated with molecular weight markers; oligomeric state in solution.
For test [3] the target is unchanged. The test is described as follows: crystal structure; AgsA:DD; 30% polypropylene glycol 400, 0.1 M NaCl, 20 °C; space group R32, 3 dimers in the asymmetric unit, 7.5 Å.
Test [4] deals with AgsA:DelC, AgsA lacking 9 residues at the C-terminus, tagless (Salmonella enterica serovar typhimurium LT2). Description: crystal structure; AgsA:DelC; 30% pentaerythritol propoxylate (5/4 PO/OH), 0.1 M MES pH 6.0, 30% glycerol, 20 °C; space group I23, a dimer in the asymmetric unit, 4.1 Å.
For test [5] the target is unchanged. The test is described as follows: SEC; analytical SEC, Superose 6 10/300, 20 mM Tris, 50 mM NaCl, pH 7.5, calibrated with molecular weight markers; oligomeric state in solution.
Test [6] deals with Aggregation Suppressing Protein A (AgsA) wild type, tagless (Salmonella enterica serovar typhimurium LT2). Description: SEC-MALS; separated 24-mer fraction of the wild type after size exclusion chromatography; Superdex 200 10/300, 20 mM Tris, 50 mM NaCl, pH 7.5.
Test [7] has the same target. Description: SEC-MALS; separated 18-mer fraction of the wild type after size exclusion chromatography; Superdex 200 10/300, 20 mM Tris, 50 mM NaCl, pH 7.5.
For test [8] the target is unchanged. Description: SEC-MALS; unseparated wild type protein; Superose 6 10/300, 20 mM Tris, 200 mM NaCl, pH 8.0; about 100 uL of 2 mg/mL injected.
Test [9] concerns the target AgsA:His-DD, hexa-histidine tagged double deletion construct of AgsA (Salmonella enterica serovar typhimurium LT2). Description: SEC; analytical SEC, Superose 6 10/300, 20 mM Tris, 50 mM NaCl, pH 7.5, calibrated with molecular weight markers; oligomeric state in solution.

Several values for one entry are separate records, joined by “and”; a condition that tells them apart may be missing. Equal entries are not always repeated.

In the case of “core ACD fragment of AgsA:His-DD (degraded fragment in the crystal, residues 35-147) (domain or fragment)”, the stoichiometry N in test [1] was determined as 2.

Consider “AgsA:DD, double deletion AgsA lacking 11 residues at the N-terminus and 9 residues at the C-terminus, tagless (domain or fragment)”, for which the stoichiometry N in test [2] and in test [3] was 18 throughout. In the case of “AgsA:DelC, AgsA lacking 9 residues at the C-terminus, tagless (domain or fragment)”, the stoichiometry N in test [4] and in test [5] was 24 each time. In the case of “Aggregation Suppressing Protein A (AgsA) wild type, tagless (natural protein)”, the stoichiometry N in test [6] was 18 and 24; in [7], 18; in [8], 18 and 24.

For “AgsA:His-DD, hexa-histidine tagged double deletion construct of AgsA (domain or fragment)”, the stoichiometry N in [9] came to 24.
